The record followed here is patent US8530213B2, “Compositions and methods for using NADH oxidases” (Georgia Tech Research Corporation, priority 2009, dated 2013).

Residue numbers refer to the chain shown, from its start. Names may count otherwise.

Usually Ki stands for the dissociation constant of the complex between target and ligand, obtained from inhibition or displacement. As usually defined, the Km is the concentration of substrate that gives half-maximal velocity.

One data set has as its target NOX5 (Lactiplantibacillus plantarum, UniProt F9UUC2). Put plainly: NAD+ product inhibition of NOX5. The format is biochemical, Lactobacillus plantarum. The protocol: Inhibition effects of NAD^+ and H2O2 were measured by incubating the enzyme with possible inhibitors for 30 minutes before the assay. For NAD^+, 0.2, 0.3, 0.4 and 0.6 mM were chosen and for H2O2, 25, 50, 100 and 200 μM were investigated.
Possible product inhibitory effects were investigated by incubating the enzyme with different concentrations of NAD^+. […] (FIG. 6).

Data set [1] is described as follows: Total turnover number (TTN), NADH. The format is biochemical. Details: key: TTN = change in NAD(P)H concentration / amount of enzyme. The conditions noted are these: for TTN with DTT, NADH: 5 mM DTT, 25° C.; for TTN, NADH: no reducing agents. The protocol: Standard kinetic assays were performed with small amounts of enzyme. Assays were carried out for two to three hours until there was no more enzymatic conversion of the substrate.
Total turnover number (TTN) is a measurement of catalyst productivity. For biocatalysts, TTN is defined as the total amount of product produced over the lifetime of an enzyme. […] […] (data not shown).
This experiment was repeated to see if the presence of reducing agents had any effect on the total turnover number. The stock solution of enzyme was dialyzed against 250 mL of 10 mM Tris-HCl (pH 7.5) for two hours. The solution was then exchanged and dialyzed for an additional 2 hours. The TTN was then measured with the dialyzed enzyme with and without reducing agents. DTT and β-mercaptoethanol (β-ME) were used at a concentration of 5 mM. The TTN for the sample with no reducing agents, DTT and β-ME were 128,000, 168,000 and 107,000, respectively.

Data set [2] is described as follows: NOX5 mutants assayed at the cell lysate level, NADPH activity. It counts as biochemical. The procedure:
(§1) Standard assays were performed at 25° C. in 100 mM TEA buffer (pH 7.5) with 5 mM DTT in cuvettes with either a 1 cm or 1 mm path length, depending on the concentration of substrate. Initial activity was measured by following the absorbance change using a Beckman Coulter DU 800 UV/Vis spectrophotometer at 340 nm. Activity of the enzyme was calculated using an extinction coefficient of NAD(P)H, ε, as 6.22 mM^−1 cm^−1. Unless otherwise noted, a substrate concentration of 0.2 mM NADPH was used for assays. 1 unit (U) of activity is defined as […].
(§2) Single mutations were done on residues G178 and L179 into K, R and K, R, H respectively, and double mutations were also investigated with different combinations of the single mutations. The mutation of G178H was excluded due to the fact that the enzyme would then have two histidines next to each other, creating steric hindrance in the binding pocket. The resulting mutants were expressed on small scale and assayed at the cell lysate level.

The nature of data set [3]: NOX5 mutants assayed at the cell lysate level, NADH activity. It counts as biochemical. The procedure:
as §1, §2

Data set [4] can be described thus: Kinetic parameters of purified NADH oxidases, substrate NADH. It counts as biochemical. The procedure: as §1
[…] This was conducted with an excess of oxygen present in the system. The reaction was initiated by mixing two separate 2× solutions of each the substrate and enzyme. The specific activity was measured, and the kinetic parameters were calculated from that data.
The data was fitted with four different models: non-linear Michaelis-Menten, Lineweaver-Burk, Eadie-Hofstee and Hanes. Through non-linear fitting, kcat and KM of the wild type were measured to be 211.6 s^−1 and 50.2 μM, respectively with an R^2 of 0.998. (FIG. 5).

Data set [5] can be described thus: Kinetic parameters of purified NADH oxidases, substrate NADPH. The format is biochemical. The conditions noted are these: purified enzyme, excess of oxygen. The procedure:
as §1
Depending on the enzyme, a substrate concentration range from 1.5 μM up to 984 μM was investigated to determine the kcat and KM of NADPH. This was conducted with an excess of oxygen present in the system. The reaction was initiated by mixing two separate 2× solutions of each the substrate and enzyme. The specific activity was measured, and the kinetic parameters were calculated from that data.

The mark [6] stands for this setting: purified enzyme, excess of oxygen.

Chain of NOX5 (F9UUC2 entry or part of it): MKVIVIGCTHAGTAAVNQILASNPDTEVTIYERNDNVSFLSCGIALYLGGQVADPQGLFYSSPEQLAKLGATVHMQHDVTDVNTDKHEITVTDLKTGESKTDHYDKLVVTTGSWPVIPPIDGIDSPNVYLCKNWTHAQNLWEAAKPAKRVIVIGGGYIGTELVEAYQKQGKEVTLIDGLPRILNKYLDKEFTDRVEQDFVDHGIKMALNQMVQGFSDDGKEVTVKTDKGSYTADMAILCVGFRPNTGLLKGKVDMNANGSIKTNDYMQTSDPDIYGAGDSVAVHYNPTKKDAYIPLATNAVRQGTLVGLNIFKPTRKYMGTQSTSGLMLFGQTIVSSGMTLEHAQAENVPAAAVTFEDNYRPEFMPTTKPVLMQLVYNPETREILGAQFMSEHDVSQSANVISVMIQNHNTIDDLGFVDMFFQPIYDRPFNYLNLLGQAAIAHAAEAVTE

The molecule `NC(=O)c1ccc[n+]([C@@H]2O[C@H](COP(=O)([O-])OP(=O)(O)OC[C@H]3O[C@@H](n4cnc5c(N)ncnc54)[C@H](O)[C@@H]3O)[C@@H](O)[C@H]2O)c1` [NAD^+] showed a Ki on NOX5 (0.2, 0.3, 0.4 and 0.6 mM NAD^+, 30 minutes incubation) of 289 µM. At NOX5 (Hanes-Woolf plot), the inhibition pattern entry is on record as “non-competitive”.

B1: L. lactis NOX2: NADH oxidase from Lactococcus lactis, comparison enzyme (protein, UniProt A2RIB7 1-446, looked up)
NADH oxidase: MKIVVIGTNHAGIATANTLLEQYPGHEIVMIDRNSNMSYLGCGTAIWVGRQIEKPDELFYAKAEDFEAKGVKILTETEVSEIDFANKKVYAKTKSDDEIIEAYDKLVLATGSRPIIPNLPGKDLKGIHFLKLFQEGQAIDAEFAKEKVKRIAVIGAGYIGTEIAEAAKRRGKEVLLFDAENTSLASYYDEEFAKGMDENLAQHGIELHFGELAKEFKANEEGYVSQIVTNKATYDVDLVINCIGFTANSALASDKLATFKNGAIKVDKHQQSSDPDVYAVGDVATIYSNALQDFTYIALASNAVRSGIVAGHNIGGKELESVGVQGSNGISIFGYNMTSTGLSVKAAKKLGLEVSFSDFEDKQKAWFLHENNDSVKIRIVYETKSRRIIGAQLASKSEIIAGNINMFSLAIQEKKTIDELALLDLFFLPHFNSPYNYMTVAALNAK
In the case of B1, in data set [1], the “TTN with DTT, NADH” value is listed as 78,480 and the “TTN, NADH” value is recorded as 38,740.

B2: L179R: NADH oxidase derived from Lactobacillus plantarum, L179R mutant (protein, listed as Lactobacillus plantarum)
chain: MKVIVIGCTHAGTAAVNQILASNPDTEVTIYERNDNVSFLSCGIALYLGGQVADPQGLFYSSPEQLAKLGATVHMQHDVTDVNTDKHEITVTDLKTGESKTDHYDKLVVTTGSWPVIPPIDGIDSPNVYLCKNWTHAQNLWEAAKPAKRVIVIGGGYIGTELVEAYQKQGKEVTLIDGRPRILNKYLDKEFTDRVEQDFVDHGIKMALNQMVQGFSDDGKEVTVKTDKGSYTADMAILCVGFRPNTGLLKGKVDMNANGSIKTNDYMQTSDPDIYGAGDSVAVHYNPTKKDAYIPLATNAVRQGTLVGLNIFKPTRKYMGTQSTSGLMLFGQTIVSSGMTLEHAQAENVPAAAVTFEDNYRPEFMPTTKPVLMQLVYNPETREILGAQFMSEHDVSQSANVISVMIQNHNTIDDLGFVDMFFQPIYDRPFNYLNLLGQAAIAHAAEAVTE
Turning to B2, the NADPH activity in data set [2] was found to be 1.76 U/mg. For the same molecule, in data set [3], the NADH activity was 7.32 U/mg. For the same molecule, in data set [1], the “TTN with DTT, NADH” value is listed as 149,000 and the “TTN, NADH” value is recorded as 181,000. Moreover, the “improvement of kcat/KM (NADH) over the wild-type” value in data set [4] is on record as “more than 4 fold”. In addition, in data set [4] (setting [6]), the Km is 6.56 µM and the “kcat, NADH” value came out at 122.0 s⁻¹. In data set [5], the Km was found to be 490 µM and the “kcat, NADPH” value turned out to be 146.4 s⁻¹.

B3: G178R/L179H: NADH oxidase derived from Lactobacillus plantarum, G178R/L179H mutant (protein, listed as Lactobacillus plantarum)
chain: B2 chain with G178R, R179H
For B3, the NADPH activity in data set [2] is listed as 0.52 U/mg. For the same molecule, the NADH activity in data set [3] is 0.64 U/mg.

B4: G178R: NADH oxidase derived from Lactobacillus plantarum, G178R mutant (protein, listed as Lactobacillus plantarum)
chain: B2 chain with G178K, R179L
With B4, the NADPH activity in data set [2] is reported as 0.23 U/mg. Moreover, the NADH activity in data set [3] was found to be 1.51 U/mg.

B5: G178R/L179K: NADH oxidase derived from Lactobacillus plantarum, G178R/L179K mutant (protein, listed as Lactobacillus plantarum)
chain: B2 chain with G178R, R179K
For B5, the NADPH activity in data set [2] worked out at 3.56 U/mg. Moreover, the NADH activity in data set [3] is reported as 0.94 U/mg.

B6: L179H: NADH oxidase derived from Lactobacillus plantarum, L179H mutant (protein, listed as Lactobacillus plantarum)
chain: B2 chain with R179H
In the case of B6, in data set [2], the NADPH activity is recorded as 0.64 U/mg. Further, the NADH activity in data set [3] amounted to 1.37 U/mg.

B7: G178K/L179H: NADH oxidase derived from Lactobacillus plantarum, G178K/L179H mutant (protein, listed as Lactobacillus plantarum)
chain: B2 chain with G178K, R179H
For B7, the NADPH activity in data set [2] came to 3.85 U/mg. In data set [3], the NADH activity worked out at 1.24 U/mg.

B8: G178K/L179K: NADH oxidase derived from Lactobacillus plantarum, G178K/L179K mutant (protein, listed as Lactobacillus plantarum)
chain: B2 chain with G178K, R179K
In the case of B8, the NADPH activity in data set [2] amounted to 3.11 U/mg. Also, the NADH activity in data set [3] is 0.84 U/mg.

B9: G178K/L179R: NADH oxidase derived from Lactobacillus plantarum, G178K/L179R mutant (protein, listed as Lactobacillus plantarum)
chain: B2 chain with G178K
As to B9, the NADPH activity in data set [2] stood at 5.68 U/mg. Also, the NADH activity in data set [3] amounted to 2.00 U/mg.

B10: G178K: NADH oxidase derived from Lactobacillus plantarum, G178K mutant (protein, listed as Lactobacillus plantarum)
chain: B2 chain with G178K, R179L
As to B10, in data set [2], the NADPH activity amounted to 0.46 U/mg. Besides, in data set [3], the NADH activity is 3.92 U/mg.

B11: L179K: NADH oxidase derived from Lactobacillus plantarum, L179K mutant (protein, listed as Lactobacillus plantarum)
chain: B2 chain with R179K
For the molecule B11, the NADPH activity in data set [2] is listed as 1.03 U/mg. In addition, the NADH activity in data set [3] is given as 5.14 U/mg.
